Results as given in publication PMC8070380 (2021).

Key:
[1] = molecular target: T1, A3Bctd-DM (L230K/F308K), residues 187-378 (human, UniProt Q9UH17 187-378, L230K | F308K); test: SPR; association 120 s, dissociation 300 s
[2] = molecular target: T1, A3Bctd-DM (L230K/F308K), residues …; test: SPR; association 300 s, dissociation 750 s

T1 sequence (Q9UH17 187-378 L230K/F308K): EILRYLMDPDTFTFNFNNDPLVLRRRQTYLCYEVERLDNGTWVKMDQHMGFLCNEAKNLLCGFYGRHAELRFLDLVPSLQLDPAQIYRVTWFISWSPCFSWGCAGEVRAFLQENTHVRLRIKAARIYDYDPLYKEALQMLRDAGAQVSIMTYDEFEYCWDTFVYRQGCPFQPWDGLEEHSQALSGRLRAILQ

B1: scFv 5G7 (heavy chain Fv followed by light chain Fv, 16-residue His8 linker) (scFv, V domains shown)
VH: EVQLLESGGDLVKPGGSLKLSCAASGFTFSSYGMSWVRQTPDKRLEWVATISSGGSYTYYPDSVKGRFTISRDNAKNTLYLQMSSLKSEDTAMYYCARGGEGYYFDYWGQGTTLTVSS
VL: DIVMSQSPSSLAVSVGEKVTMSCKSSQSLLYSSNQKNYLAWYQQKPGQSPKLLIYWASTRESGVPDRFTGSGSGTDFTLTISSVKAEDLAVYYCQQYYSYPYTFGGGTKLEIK
What does the source list for B1?
koff [1]: 0.000779 s⁻¹; koff [2]: 0.000331 s⁻¹
